The record followed here is article PMC8277574 (2021).

B1: human MUSK full-length extracellular region (E22 to T495), Avi-His6, biotinylated (domain or fragment)
chain: EKLPKAPVITTPLETVDALVEEVATFMCAVESYPQPEISWTRNKILIKLFDTRYSIRENGQLLTILSVEDSDDGIYCCTANNGVGGAVESCGALQVKMKPKITRPPINVKIIEGLKAVLPCTTMGNPKPSVSWIKGDSPLRENSRIAVLESGSLRIHNVQKEDAGQYRCVAKNSLGTAYSKVVKLEVEVFARILRAPESHNVTFGSFVTLHCTATGIPVPTITWIENGNAVSSGSIQESVKDRVIDSRLQLFITKPGLYTCIATNKHGEKFSTAKAAATISIAEWSKPQKDNKGYCAQYRGEVCNAVLAKDALVFLNTSYADPEEAQELLVHTAWNELKVVSPVCRPAAEALLCNHIFQECSPGVVPTPIPICREYCLAVKELFCAKEWLVMEEKTHRGLYRSEMHLLSVPECSKLPSMHWDPTACARLPHLDYNKENLKTFPPMTSSKPSVDIPNLPSSSSSSFSVSPTYSMT
modifications: biotin (on the Avi tag, BirA in vitro)
B3: mouse MUSK Fz domain and C-terminal flanking sequence (D307 to T494), Avi-His6, biotinylated (domain or fragment)
chain: DSQGYCAQYRGEVCDAVLAKDALVFFNTSYRDPEDAQELLIHTAWNELKAVSPLCRPAAEALLCNHLFQECSPGVVPTPMPICREYCLAVKELFCAKEWQAMEGKAHRGLYRSGMHLLPVPECSKLPSMHRDPTACTRLPYLDYKKENITTFPSITSSRPSADIPNLPASTSSFAVSPAYSMT
modifications: biotin (on the Avi tag, BirA in vitro)
B4: mouse MUSK full-length extracellular region (E22 to T494), Avi-His6, biotinylated (domain or fragment)
chain: EKLPKAPVITTPLETVDALVEEVATFMCAVESYPQPEISWTRNKILIKLFDTRYSIRENGQLLTILSVEDSDDGIYCCIANNGVGGAVESCGALQVKMKPKITRPPINVKIIEGLKAVLPCTTMGNPKPSVSWIKGDNALRENSRIAVLESGSLRIHNVQKEDAGQYRCVAKNSLGTAYSKLVKLEVEVFARILRAPESHNVTFGSFVTLRCTAIGIPVPTISWIENGNAVSSGSIQESVKDRVIDSRLQLFITKPGLYTCIATNKHGEKFSTAKAAATVSIAEWSKSQKDSQGYCAQYRGEVCDAVLAKDALVFFNTSYRDPEDAQELLIHTAWNELKAVSPLCRPAAEALLCNHLFQECSPGVVPTPMPICREYCLAVKELFCAKEWQAMEGKAHRGLYRSGMHLLPVPECSKLPSMHRDPTACTRLPYLDYKKENITTFPSITSSRPSADIPNLPASTSSFAVSPAYSMT
modifications: biotin (on the Avi tag, BirA in vitro)
B5: human MUSK Fz domain and C-terminal flanking sequence (K314 to T495), Avi-His6, biotinylated (domain or fragment)
chain: KGYCAQYRGEVCNAVLAKDALVFLNTSYADPEEAQELLVHTAWNELKVVSPVCRPAAEALLCNHIFQECSPGVVPTPIPICREYCLAVKELFCAKEWLVMEEKTHRGLYRSEMHLLSVPECSKLPSMHWDPTACARLPHLDYNKENLKTFPPMTSSKPSVDIPNLPSSSSSSFSVSPTYSMT
modifications: biotin (on the Avi tag, BirA in vitro)

Among the targets are X17 hIgG; X2 hIgG; X3 mIgG; X3 hIgG.
Common to all, as to experiment: FACS
Test [1] concerns the target B1.
Test [2] has as its target B3.
For test [3], the target named is B4.
Test [4] has as its target B5.

Regarding B1, the Kd with X17 hIgG came out at 0.86 nM; with X2 hIgG it was 0.478 nM; with X3 mIgG it was 0.113 nM; with X3 hIgG, 0.074 nM.

B2: MUSK agonist antibody X17, mouse IgG2a-LALAPG format (antibody, V domains shown)
VH: EVQLVESGGGLVQPGGSLRLSCAASGFTISYSSIHWVRQAPGKGLEWVASIYSSSGSTYYADSVKGRFTISADTSKNTAYLQMNSLRAEDTAVYYCARGDHGYYVFGYLGMDYWGQGTLVTVSS
VL: DIQMTQSPSSLSASVGDRVTITCRASQSVSSAVAWYQQKPGKAPKLLIYSASSLYSGVPSRFSGSRSGTDFTLTISSLQPEDFATYYCQQSYKPGALITFGQGTKVEIK
Turning to B2, the Kd is 0.97 nM in test [1], 0.74 nM in test [2], 1.1 nM in test [3] and 0.61 nM in test [4].

On to B3, for which the Kd turned out to be 0.68 nM with X17 hIgG, 0.265 nM in the test with X2 hIgG, 0.096 nM in the test with X3 mIgG and 0.07 nM in the test with X3 hIgG.

In the case of B4, the Kd with X17 hIgG was determined as 1.04 nM; in the test with X2 hIgG, 0.307 nM; with X3 mIgG it was 0.118 nM; with X3 hIgG, 0.079 nM.

B5: the Kd is 0.56 nM with X17 hIgG, 0.421 nM in the test with X2 hIgG, 0.079 nM in the test with X3 mIgG and 0.057 nM with X3 hIgG.
